Measurements taken from article PMC11061198, “Polyphosphate and tyrosine phosphorylation in the N-terminal domain of the human mitochondrial Lon protease disrupts its functions” (Scientific Reports, 2024).

Target: the molecule itself
Assay: cryo-EM structure; ADP-bound hLon variants, 1.3 mg/ml, single-particle cryo-EM (cryoSPARC); homo-hexamer

B1: human Lon protease Y394E phosphorylation-mimicking mutant (enzyme, UniProt P36776 68-959, looked up)
chain: FWEASSRGGGAFSGGEDASEGGAEEGAGGAGGSAGAGEGPVITALTPMTIPDVFPHLPLIAITRNPVFPRFIKIIEVKNKKLVELLRRKVRLAQPYVGVFLKRDDSNESDVVESLDEIYHTGTFAQIHEMQDLGDKLRMIVMGHRRVHISRQLEVEPEEPEAENKHKPRRKSKRGKKEAEDELSARHPAELAMEPTPELPAEVLMVEVENVVHEDFQVTEEVKALTAEIVKTIRDIIALNPLYRESVLQMMQAGQRVVDNPIYLSDMGAALTGAESHELQDVLEETNIPKRLYKALSLLKKEFELSKLQQRLGREVEEKIKQTHRKELLQEQLKIIKKELGLEKDDKDAIEEKFRERLKELVVPKHVMDVVDEELSKLGLLDNHSSEFNVTRNYLDWLTSIPWGKYSNENLDLARAQAVLEEDHYGMEDVKKRILEFIAVSQLRGSTQGKILCFYGPPGVGKTSIARSIARALNREYFRFSVGGMTDVAEIKGHRRTYVGAMPGKIIQCLKKTKTENPLILIDEVDKIGRGYQGDPSSALLELLDPEQNANFLDHYLDVPVDLSKVLFICTANVTDTIPEPLRDRMEMINVSGYVAQEKLAIAERYLVPQARALCGLDESKAKLSSDVLTLLIKQYCRESGVRNLQKQVEKVLRKSAYKIVSGEAESVEVTPENLQDFVGKPVFTVERMYDVTPPGVVMGLAWTAMGGSTLFVETSLRRPQDKDAKGDKDGSLEVTGQLGEVMKESARIAYTFARAFLMQHAPANDYLVTSHIHLHVPEGATPKDGPSAGCTIVTALLSLAMGRPVRQNLAMTGEVSLTGKILPVGGIKEKTIAAKRAGVTCIVLPAENKKDFYDLAAFITEGLEVHFVEHYREIFDIAFPDEQAEALAVER
notes: human mitochondrial Lon protease (LONP1) lacking the N-terminal MTS, with Y394E; also called hLon Y394E; source: E. coli Rosetta 2 (DE3) or E. coli C321 (DE3), purified (NiNTA agarose, Superose 6 SEC)
- stoichiometry N: 6
